In IntAct's records for PubMed 32439656:

B1: ER membrane protein complex subunit 2 (Homo sapiens), Q15006 (parent)
chain: MAKVSELYDVTWEEMRDKMRKWREENSRNSEQIVEVGEELINEYASKLGDDIWIIYEQVMIAALDYGRDDLALFCLQELRRQFPGSHRVKRLTGMRFEAMERYDDAIQLYDRILQEDPTNTAARKRKIAIRKAQGKNVEAIRELNEYLEQFVGDQEAWHELAELYINEHDYAKAAFCLEELMMTNPHNHLYCQQYAEVKYTQGGLENLELSRKYFAQALKLNNRNMRALFGLYMSASHIASNPKASAKTKKDNMKYASWAASQINRAYQFAGRSKKETKYSLKAVEDMLETLQITQS
partner: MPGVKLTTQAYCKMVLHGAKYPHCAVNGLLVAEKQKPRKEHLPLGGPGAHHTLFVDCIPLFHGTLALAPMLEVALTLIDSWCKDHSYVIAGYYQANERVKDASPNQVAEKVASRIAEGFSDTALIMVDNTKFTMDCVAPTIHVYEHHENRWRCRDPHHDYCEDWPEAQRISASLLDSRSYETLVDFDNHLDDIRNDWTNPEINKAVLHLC
B2: ER membrane protein complex subunit 2 (Homo sapiens), Q15006 (parent)
chain: B1 chain
partner: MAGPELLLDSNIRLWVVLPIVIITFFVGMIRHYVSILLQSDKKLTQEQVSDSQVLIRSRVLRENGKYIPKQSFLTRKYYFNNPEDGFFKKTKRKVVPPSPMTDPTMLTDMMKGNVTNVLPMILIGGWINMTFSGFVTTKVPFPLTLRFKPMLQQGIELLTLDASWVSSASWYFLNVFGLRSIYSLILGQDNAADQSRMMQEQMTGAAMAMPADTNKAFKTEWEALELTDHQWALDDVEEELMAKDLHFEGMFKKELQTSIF
B3: ER membrane protein complex subunit 2 (Homo sapiens), Q15006 (parent)
chain: B1 chain
partner: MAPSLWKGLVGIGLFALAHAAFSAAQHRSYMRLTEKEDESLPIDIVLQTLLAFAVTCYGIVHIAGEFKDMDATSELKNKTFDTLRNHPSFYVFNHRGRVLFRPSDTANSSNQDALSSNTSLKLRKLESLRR
B4: ER membrane protein complex subunit 6 (Homo sapiens), Q9BV81 (parent)
chain: MAAVVAKREGPPFISEAAVRGNAAVLDYCRTSVSALSGATAGILGLTGLYGFIFYLLASVLLSLLLILKAGRRWNKYFKSRRPLFTGGLIGGLFTYVLFWTFLYGMVHVY
partner: B3 partner

Variants of: B1
Details: with emc8_human EMC8, O43402

Variant | effect of a mutation on the interaction
MAKVSELYDVTWEEMRDKMRKWREENSRNSEQIVEVGEELINEYASKLGDDIWIIYEQVMIAALDYGRDDLALFCLQELRRQFPGSHRVKRLTGMRFEAMERYDDAIQLYDRILQEDPTNTAARKRKIAIRKAQGKNVEAIRELNEYLEQFVGDQAAWHELAELYINEHDYAKAAFCLEELMMTNPHNHLYCQQYAEVKYTQGGLENLELSRKYFAQALKLNNRNMRALFGLYMSASHIASNPKASAKTKKDNMKYASWAASQINRAYQFAGRSKKETKYSLKAVEDMLETLQITQS [E156A] | with no effect
MAKVSELYDVTWEEMRDKMRKWREENSRNSEQIVEVGEELINEYASKLGDDIWIIYEQVMIAALDYGRDDLALFCLQELRRQFPGSHRVKRLTGMRFEAMERYDDAIQLYDRILQEDPTNTAARKRKIAIRKAQGKNVEAIRELNEYLEQFVGDQEAWHELAELYINEHDYAKAAFCLEELMMTNPHNHLYCQQYAEVKYTQGGLENLELSRKYFAQALKLNNRNMRALFGLYMSASHIASNPKASAKTKKDNMKYASAAASQINRAYQFAGRSKKETKYSLKAVEDMLETLQITQS [W259A] | with no effect
MAKVSELYDVTWEEMRDKMRKWREENSANSEQIVEVGEELINEYASKLGDDIWIIYEQVMIAALDYGRDDLALFCLQELRRQFPGSHRVKRLTGMRFEAMERYDDAIQLYDRILQEDPTNTAARKRKIAIRKAQGKNVEAIRELNEYLEQFVGDQEAWHELAELYINEHDYAKAAFCLEELMMTNPHNHLYCQQYAEVKYTQGGLENLELSRKYFAQALKLNNRNMRALFGLYMSASHIASNPKASAKTKKDNMKYASWAASQINRAYQFAGRSKKETKYSLKAVEDMLETLQITQS [R28A] | with no effect
MAKVSELYDVTWEEMRDKMRKWREENSRNSEQIVEVGEELINEYASKLGDDIWIIYEQVMIAALDYGRDDLALFCLQELRRQFPGSHRVKRLTGMRFEAMERYDDAIQLYDRILQEDPTNTAARKRKIAIRKAQGKNVEAIRELNEYLEQFVGDQEAWHELAELYINEHDYAKAAFCLEALMMTNPHNHLYCQQYAEVKYTQGGLENLELSRKYFAQALKLNNRNMRALFGLYMSASHIASNPKASAKTKKDNMKYASWAASQINRAYQFAGRSKKETKYSLKAVEDMLETLQITQS [E180A] | with no effect
MAKVSELYDVTWEEMRDKMRKWREENSRNSEQIVEVGEELINEYASKLGDDIWIIYEQVMIAALDYGRDDLALFCLQELRRQFPGSHRVKRLTGMRFEAMERYDDAIQLYDRILQEDPTNTAARKRKIAIRKAQGKNVEAIRELNEYLEQFVGDQEAWHALAELYINEHDYAKAAFCLEELMMTNPHNHLYCQQYAEVKYTQGGLENLELSRKYFAQALKLNNRNMRALFGLYMSASHIASNPKASAKTKKDNMKYASWAASQINRAYQFAGRSKKETKYSLKAVEDMLETLQITQS [E160A] | with no effect
MAKVSELYDVTWEEMRDKMRKWREENSRNSEQIVEVGEELINEYASKLGDDIWIIYEQVMIAALDYGRDDLALFCLQELRRQFPGSHRVKRLTGMRFEAMERYDDAIQLYDRILQEDPTNTAARKRKIAIRKAQGKNVEAIRELNEYLEQFVGDQEAWHELAELYINEHDAAKAAFCLEELMMTNPHNHLYCQQYAEVKYTQGGLENLELSRKYFAQALKLNNRNMRALFGLYMSASHIASNPKASAKTKKDNMKYASWAASQINRAYQFAGRSKKETKYSLKAVEDMLETLQITQS [Y171A] | with no effect
MAKVSELYDVTWEEMRDKMRKWREENSRNSEQIVEVGEELINEYASKLGDDIWIIYEQVMIAALDYGRDDLALFCLQELRRQFPGSHRVKRLTGMRFEAMERYDDAIQLYDRILQEDPTNTAARKRKIAIRKAQGKNVEAIRELNEYLEQFVGDQEAWHELAELYINEHDYAKAAFCLEELMMTNPHNHLYCQQYAEVKATQGGLENLELSRKYFAQALKLNNRNMRALFGLYMSASHIASNPKASAKTKKDNMKYASWAASQINRAYQFAGRSKKETKYSLKAVEDMLETLQITQS [Y200A] | disrupting interaction strength
MAKVSELYDVTWEEMRDKMRKWREENSRNSEQIVEVGEELINEYASKLGDDIWIIYEQVMIAALDYGRDDLALFCLQELRRQFPGSHRVKRLTGMRFEAMERYDDAIQLYDRILQEDPTNTAARKRKIAIRKAQGKNVEAIRELNEYLEQFVGDQEAWHELAELYINEHDYAKAAFCLEELMMTNPHNHLYCQQYAEVKYTQGGLENLELSRKYFAQALKLNNRNMAALFGLYMSASHIASNPKASAKTKKDNMKYASWAASQINRAYQFAGRSKKETKYSLKAVEDMLETLQITQS [R227A] | disrupting interaction strength

Variants of: B2
Details: with emc3_human EMC3, Q9P0I2

Variant | effect of a mutation on the interaction
MAKVSELYDVTWEEMRDKMRKWREENSRNSEQIVEVGEELINEYASKLGDDIWIIYEQVMIAALDYGRDDLALFCLQELRRQFPGSHRVKRLTGMRFEAMERYDDAIQLYDRILQEDPTNTAARKRKIAIRKAQGKNVEAIRELNEYLEQFVGDQEAWHELAELYINEHDYAKAAFCLEELMMTNPHNHLYCQQYAEVKYTQGGLENLELSRKYFAQALKLNNRNMRALFGLYMSASHIASNPKASAKTKKDNMKYASAAASQINRAYQFAGRSKKETKYSLKAVEDMLETLQITQS [W259A] | disrupting interaction strength
MAKVSELYDVTWEEMRDKMRKWREENSANSEQIVEVGEELINEYASKLGDDIWIIYEQVMIAALDYGRDDLALFCLQELRRQFPGSHRVKRLTGMRFEAMERYDDAIQLYDRILQEDPTNTAARKRKIAIRKAQGKNVEAIRELNEYLEQFVGDQEAWHELAELYINEHDYAKAAFCLEELMMTNPHNHLYCQQYAEVKYTQGGLENLELSRKYFAQALKLNNRNMRALFGLYMSASHIASNPKASAKTKKDNMKYASWAASQINRAYQFAGRSKKETKYSLKAVEDMLETLQITQS [R28A] | with no effect
MAKVSELYDVTWEEMRDKMRKWREENSRNSEQIVEVGEELINEYASKLGDDIWIIYEQVMIAALDYGRDDLALFCLQELRRQFPGSHRVKRLTGMRFEAMERYDDAIQLYDRILQEDPTNTAARKRKIAIRKAQGKNVEAIRELNEYLEQFVGDQEAWHELAELYINEHDYAKAAFCLEELMMTNPHNHLYCQQYAEVKYTQGGLENLELSRKYFAQALKLNNRNMAALFGLYMSASHIASNPKASAKTKKDNMKYASWAASQINRAYQFAGRSKKETKYSLKAVEDMLETLQITQS [R227A] | disrupting interaction strength
MAKVSELYDVTWEEMRDKMRKWREENSRNSEQIVEVGEELINEYASKLGDDIWIIYEQVMIAALDYGRDDLALFCLQELRRQFPGSHRVKRLTGMRFEAMERYDDAIQLYDRILQEDPTNTAARKRKIAIRKAQGKNVEAIRELNEYLEQFVGDQEAWHELAELYINEHDYAKAAFCLEELMMTNPHNHLYCQQYAEVKATQGGLENLELSRKYFAQALKLNNRNMRALFGLYMSASHIASNPKASAKTKKDNMKYASWAASQINRAYQFAGRSKKETKYSLKAVEDMLETLQITQS [Y200A] | with no effect
MAKVSELYDVTWEEMRDKMRKWREENSRNSEQIVEVGEELINEYASKLGDDIWIIYEQVMIAALDYGRDDLALFCLQELRRQFPGSHRVKRLTGMRFEAMERYDDAIQLYDRILQEDPTNTAARKRKIAIRKAQGKNVEAIRELNEYLEQFVGDQEAWHELAELYINEHDAAKAAFCLEELMMTNPHNHLYCQQYAEVKYTQGGLENLELSRKYFAQALKLNNRNMRALFGLYMSASHIASNPKASAKTKKDNMKYASWAASQINRAYQFAGRSKKETKYSLKAVEDMLETLQITQS [Y171A] | with no effect
MAKVSELYDVTWEEMRDKMRKWREENSRNSEQIVEVGEELINEYASKLGDDIWIIYEQVMIAALDYGRDDLALFCLQELRRQFPGSHRVKRLTGMRFEAMERYDDAIQLYDRILQEDPTNTAARKRKIAIRKAQGKNVEAIRELNEYLEQFVGDQEAWHALAELYINEHDYAKAAFCLEELMMTNPHNHLYCQQYAEVKYTQGGLENLELSRKYFAQALKLNNRNMRALFGLYMSASHIASNPKASAKTKKDNMKYASWAASQINRAYQFAGRSKKETKYSLKAVEDMLETLQITQS [E160A] | with no effect
MAKVSELYDVTWEEMRDKMRKWREENSRNSEQIVEVGEELINEYASKLGDDIWIIYEQVMIAALDYGRDDLALFCLQELRRQFPGSHRVKRLTGMRFEAMERYDDAIQLYDRILQEDPTNTAARKRKIAIRKAQGKNVEAIRELNEYLEQFVGDQEAWHELAELYINEHDYAKAAFCLEALMMTNPHNHLYCQQYAEVKYTQGGLENLELSRKYFAQALKLNNRNMRALFGLYMSASHIASNPKASAKTKKDNMKYASWAASQINRAYQFAGRSKKETKYSLKAVEDMLETLQITQS [E180A] | disrupting interaction strength
MAKVSELYDVTWEEMRDKMRKWREENSRNSEQIVEVGEELINEYASKLGDDIWIIYEQVMIAALDYGRDDLALFCLQELRRQFPGSHRVKRLTGMRFEAMERYDDAIQLYDRILQEDPTNTAARKRKIAIRKAQGKNVEAIRELNEYLEQFVGDQAAWHELAELYINEHDYAKAAFCLEELMMTNPHNHLYCQQYAEVKYTQGGLENLELSRKYFAQALKLNNRNMRALFGLYMSASHIASNPKASAKTKKDNMKYASWAASQINRAYQFAGRSKKETKYSLKAVEDMLETLQITQS [E156A] | with no effect

Variants of: B3
Details: with emc5_human MMGT1, Q8N4V1

Variant | effect of a mutation on the interaction
MAKVSELYDVTWEEMRDKMRKWREENSANSEQIVEVGEELINEYASKLGDDIWIIYEQVMIAALDYGRDDLALFCLQELRRQFPGSHRVKRLTGMRFEAMERYDDAIQLYDRILQEDPTNTAARKRKIAIRKAQGKNVEAIRELNEYLEQFVGDQEAWHELAELYINEHDYAKAAFCLEELMMTNPHNHLYCQQYAEVKYTQGGLENLELSRKYFAQALKLNNRNMRALFGLYMSASHIASNPKASAKTKKDNMKYASWAASQINRAYQFAGRSKKETKYSLKAVEDMLETLQITQS [R28A] | disrupting interaction strength
MAKVSELYDVTWEEMRDKMRKWREENSRNSEQIVEVGEELINEYASKLGDDIWIIYEQVMIAALDYGRDDLALFCLQELRRQFPGSHRVKRLTGMRFEAMERYDDAIQLYDRILQEDPTNTAARKRKIAIRKAQGKNVEAIRELNEYLEQFVGDQAAWHELAELYINEHDYAKAAFCLEELMMTNPHNHLYCQQYAEVKYTQGGLENLELSRKYFAQALKLNNRNMRALFGLYMSASHIASNPKASAKTKKDNMKYASWAASQINRAYQFAGRSKKETKYSLKAVEDMLETLQITQS [E156A] | disrupting interaction strength

Variants of: B4
Details: with emc5_human MMGT1, Q8N4V1

Variant | effect of a mutation on the interaction
MAAVVAKREGPPFISEAAVRGNAAVLDYCRTSKSAKSGATAGILGLTGLYGFIFYLLASVLLSLLLILKAGRRWNKYFKSRRPLFTGGLIGGLFTYVLFWTFLYGMVHVY [V33K;L36K] | with no effect
MAAVVAKREGPPFISEAAVRGNAAVLDYCRTSVSALSGATAGILYLTALYGFIFYLLASVLLSLLLILKAGRRWNKYFKSRRPLFTGGLIGGLFTYVLFWTFLYGMVHVY [G45Y;G48A] | with no effect
